From paper PMC5179001 come the findings set out here.

This data set deals with RovA (Yersinia pseudotuberculosis (YPIII?)). Description: EMSA. To be noted: […]) at 25 C or 37 C, buffer. For orientation: A gel shift assay detects complexes by their altered migration in electrophoresis.

The substance “rovA promoter fragment BS I (activating site)” showed a K half of 6.01 nM.
With “rovA promoter fragment BS II (repressing site)” the figure was 40.7 nM.
